Laboratory results reported in patent US20260001933A1 (PETMEDIX, published 2026).
Positions count from the first letter of the chain named. Where two headings read alike, the source gives them in different places.

T1: Canine FcRn-B2M recombinant protein (Immunitrack) (canine, UniProt A0A8I3PFR8 25-296; P19341 1-42)
T1 chain 1: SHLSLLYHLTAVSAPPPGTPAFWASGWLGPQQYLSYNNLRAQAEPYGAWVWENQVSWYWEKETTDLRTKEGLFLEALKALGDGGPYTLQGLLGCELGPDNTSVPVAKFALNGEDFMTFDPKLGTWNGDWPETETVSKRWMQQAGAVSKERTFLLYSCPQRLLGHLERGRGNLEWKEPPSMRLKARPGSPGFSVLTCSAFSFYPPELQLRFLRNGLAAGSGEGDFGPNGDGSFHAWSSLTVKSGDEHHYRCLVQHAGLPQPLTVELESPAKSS
T1 chain 2: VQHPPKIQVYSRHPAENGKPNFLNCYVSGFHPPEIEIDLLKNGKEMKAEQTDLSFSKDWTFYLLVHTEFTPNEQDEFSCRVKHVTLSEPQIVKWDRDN

T2: Murine FcRn-B2M recombinant protein (Immunitrack) (murine, UniProt Q61559 22-297; P01887 21-119, limits assumed)
T2 construct: Bought reagent; also called murine neonatal receptor
T2 sequence (looked up): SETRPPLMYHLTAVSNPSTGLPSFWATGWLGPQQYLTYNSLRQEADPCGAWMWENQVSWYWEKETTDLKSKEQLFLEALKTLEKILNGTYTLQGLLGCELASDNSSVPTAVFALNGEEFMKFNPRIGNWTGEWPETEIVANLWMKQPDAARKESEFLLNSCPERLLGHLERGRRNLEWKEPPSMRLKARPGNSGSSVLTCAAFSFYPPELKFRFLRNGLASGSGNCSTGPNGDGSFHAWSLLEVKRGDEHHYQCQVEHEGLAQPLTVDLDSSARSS
T2 sequence (b2m, looked up): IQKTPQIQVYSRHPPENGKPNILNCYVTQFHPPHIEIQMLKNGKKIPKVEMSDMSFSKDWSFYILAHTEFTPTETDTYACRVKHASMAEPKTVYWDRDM

B1: Bedinvetmab (antibody, V domains shown)
VH: EVQLVESGGDLVKPGGSLRLSCVASGFTFSSHGMHWVRQSPGKGLQWVAVINSGGSSTYYTDAVKGRFTISRDNAKNTVYLQMNSLRAEDTAMYYCAKESVGGWEQLVGPHFDYWGQGTLVIVSS
VL: QSVLTQPTSVSGSLGQRVTISCSGSTNNIGILGASWYQLFPGKAPKLLVYGNGNRPSGVPDRFSGADSGDSVTLTITGLQAEDEADYYCQSFDTTLGAHVFGGGTHLTVL
B2: PetML119 (canine p75NTR ECD-canine IgGB wt Fc protein fusion) (Fc fusion)
chain: KEACPTGLYTHSGECCKACNLGEGVAQPCGANQTVCEPCLDSVTFSDVVSATEPCKPCTECVGLQSMSAPCVEADDAVCRCAYGYYQDETTGRCEACRVCEAGSGLVFSCQDRQNTVCEECPDGTYSDEANHVDPCLPCTVCEDTERQLRECTRWADAECEEIPGGGGRENGRVPRPPDCPKCPAPEMLGGPSVFIFPPKPKDTLLIARTPEVTCVVVDLDPEDPEVQISWFVDGKQMQTAKTQPREEQFNGTYRVVSVLPIGHQDWLKGKQFTCKVNNKALPSPIERTISKARGQAHQPSVYVLPPSREELSKNTVSLTCLIKDFFPPDIDVEWQSNGQQEPESKYRTTPPQLDEDGSYFLYSKLSVDKSRWQRGDTFICAVMHEALHNHYTQKSLSHSPGK
notes: Glycosylated, made in CHO cells; also called Fc-Bwt; Sample 1
B3: PetML122 (canine p75NTR ECD-canine Fc YTE protein fusion) (Fc fusion)
chain: B2 chain with L206Y, A208T, T210E
notes: also called Fc-B-YTE; Sample 2

Experiments:
[1] = molecular target: T3, Human nerve growth factor (NGF) (human, UniProt P01138 122-241); test: SPR, kinetic fit (caption of panel 7d: hNGF; BedinvetmAb; 1:1 binding); the set-up for Bedinvetmab is not described in the text; column head 'Kinetics affinity KD (nM)'
T3 construct: Bought reagent; also called human NGF; hNGF

[2] = molecular target: T3, Human nerve growth factor (NGF); test: cell-based or functional assay
[3] = molecular target: T4, Protein A (Sensor Chip Protein A, Cytiva) (UniProt P38507 212-269); test: SPR (Biacore 8K), Sensor Chip Protein A, fusion protein produced in CHOZN injected over the chip, 1:1 binding kinetic fit; column head 'Kinetics affinity KD (nM)'
T4 construct: Commercial chip ligand; It may be a recombinant variant of staphylococcal protein A

[4] = molecular target: T4, Protein A (Sensor Chip Protein A, …); test: SPR (Biacore 8K), Sensor Chip Protein A, fusion protein produced in CHO-s injected over the chip, 1:1 binding kinetic fit; column head 'Kinetics affinity KD (nM)'
[5] = molecular target: T5, Rat nerve growth factor (NGF) (rat, UniProt P25427 122-241); test: SPR (Biacore 8K), PetML119 captured on Protein A chip, rat NGF as analyte, multi-cycle kinetics; column head 'Kinetics affinity KD (nM)'
T5 construct: Bought reagent; also called rat NGF

[6] = molecular target: T3, Human nerve growth factor (NGF); test: SPR (Biacore 8K), PetML119 captured on Protein A chip, human NGF as analyte, multi-cycle kinetics; column head 'Kinetics affinity KD (nM)'
[7] = molecular target: T1, Canine FcRn-B2M recombinant protein …; test: SPR (Biacore 8K), canine FcRn-B2M amine-coupled on CM5, running buffer pH 6, fusion protein as analyte; steady state affinity
[8] = molecular target: T2, Murine FcRn-B2M recombinant protein …; test: SPR (Biacore 8K), murine FcRn-B2M amine-coupled on CM5, running buffer pH 6, fusion protein as analyte; steady state affinity
[9] = molecular target: T2, Murine FcRn-B2M recombinant protein …; test: as above; remark: listed apart in the source
[10] = molecular target: T1, Canine FcRn-B2M recombinant protein …; test: SPR (Biacore 8K), canine FcRn-B2M amine-coupled on CM5, running buffer pH 6, fusion protein as analyte; steady state affinity

Binder	Kd [1] [nM]	IC50 (nM), inhibition of NGF-dependent TF-1 cell proliferation [2] [nM]	Kd [3] [nM]	Kd [4] [nM]	Kd [5] [nM]	Kd [6] [nM]	Kd [7] [nM]	Kd [8] [nM]	Kd [9] [nM]	Kd [10] [nM]
B1	0.073	1.65	–	–	–	–	–	–	–	–
B2	–	15.2	1.3	2.8	0.12	0.12	6000	2000	–	–
B3	–	–	15	–	–	–	–	–	90	400
